How the values were obtained:
AncSZ = experiment: phosphorylation enrichment, bacterial display (enrichment ratio); higher = better substrate or ligand; peptides without Tyr show the background
EPHB1 = EPHB1 (UniProt P54762); experiment: as above
EPHB2 = EPHB2 (UniProt P29323); experiment: as above
FGFR1 = FGFR1 (UniProt P11362); experiment: as above
FGFR3 = FGFR3 (UniProt P22607); experiment: as above
Fer (mouse) = experiment: as above
Fes = Fes (UniProt P07332); experiment: as above
Fyn = Fyn (UniProt P06241); experiment: as above
Fyn, sequence (P06241 whole entry, looked up): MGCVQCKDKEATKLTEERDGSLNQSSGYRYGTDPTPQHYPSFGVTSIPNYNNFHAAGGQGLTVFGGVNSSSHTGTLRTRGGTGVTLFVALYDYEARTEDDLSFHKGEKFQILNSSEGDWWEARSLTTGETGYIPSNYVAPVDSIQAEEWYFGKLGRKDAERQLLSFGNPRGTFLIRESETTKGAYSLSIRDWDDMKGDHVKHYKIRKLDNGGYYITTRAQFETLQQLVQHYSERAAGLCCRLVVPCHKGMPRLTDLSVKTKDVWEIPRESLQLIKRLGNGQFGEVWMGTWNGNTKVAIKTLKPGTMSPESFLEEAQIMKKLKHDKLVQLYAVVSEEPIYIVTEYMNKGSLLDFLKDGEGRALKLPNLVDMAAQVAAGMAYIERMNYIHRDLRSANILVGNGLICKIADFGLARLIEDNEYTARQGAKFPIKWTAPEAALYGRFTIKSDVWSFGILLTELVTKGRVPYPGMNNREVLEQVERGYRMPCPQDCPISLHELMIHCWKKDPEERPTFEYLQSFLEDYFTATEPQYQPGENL

Hck = Hck (UniProt P08631); experiment: as above
Jak2 = Jak2 (UniProt O60674); experiment: as above
MERTK = MERTK (UniProt Q12866); experiment: as above
MERTK, sequence (Q12866 whole entry, looked up): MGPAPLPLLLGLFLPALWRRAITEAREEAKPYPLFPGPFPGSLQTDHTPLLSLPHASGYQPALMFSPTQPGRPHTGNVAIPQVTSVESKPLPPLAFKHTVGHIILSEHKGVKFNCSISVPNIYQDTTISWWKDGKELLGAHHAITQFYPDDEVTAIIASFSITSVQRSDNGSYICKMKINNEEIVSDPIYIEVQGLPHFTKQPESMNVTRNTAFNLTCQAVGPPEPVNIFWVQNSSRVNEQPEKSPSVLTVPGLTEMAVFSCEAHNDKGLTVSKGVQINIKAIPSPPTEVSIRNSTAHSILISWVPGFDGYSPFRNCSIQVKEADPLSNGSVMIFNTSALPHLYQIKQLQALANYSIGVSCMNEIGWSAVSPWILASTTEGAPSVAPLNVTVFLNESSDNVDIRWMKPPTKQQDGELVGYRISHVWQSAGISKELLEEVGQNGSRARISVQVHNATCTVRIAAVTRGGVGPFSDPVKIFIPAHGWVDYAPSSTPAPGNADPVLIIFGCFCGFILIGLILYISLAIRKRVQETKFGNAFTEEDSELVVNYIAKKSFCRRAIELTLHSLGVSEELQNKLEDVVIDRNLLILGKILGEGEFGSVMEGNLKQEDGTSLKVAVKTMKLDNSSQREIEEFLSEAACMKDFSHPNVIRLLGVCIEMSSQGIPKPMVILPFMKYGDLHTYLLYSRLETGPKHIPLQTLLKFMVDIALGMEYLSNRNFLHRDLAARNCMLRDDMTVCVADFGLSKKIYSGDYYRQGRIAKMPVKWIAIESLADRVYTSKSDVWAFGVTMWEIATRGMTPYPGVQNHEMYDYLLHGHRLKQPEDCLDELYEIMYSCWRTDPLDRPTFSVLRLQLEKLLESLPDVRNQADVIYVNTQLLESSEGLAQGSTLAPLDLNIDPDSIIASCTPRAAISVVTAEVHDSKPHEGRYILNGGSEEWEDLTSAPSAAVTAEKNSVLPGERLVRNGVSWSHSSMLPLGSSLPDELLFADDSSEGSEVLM

c-Abl (mouse) = experiment: as above
c-Src = experiment: as above
Grb2 SH2 = Grb2 SH2 (UniProt P62993); experiment: SH2 binding enrichment of the phosphorylated peptide, bacterial display (enrichment ratio); higher = better substrate or ligand; peptides without Tyr show the background
SHP2-C SH2 = experiment: as above
c-Src SH2 = experiment: as above
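Wherever SH2 binding enrichment of the phosphorylated peptide, bacterial display is given: peptide library displayed on the E. coli surface as eCPX fusions, selected cells deep-sequenced, score is each peptide's frequency after selection divided by its frequency in the input.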
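Wherever phosphorylation enrichment, bacterial display is given: 11-residue human phosphosite peptides and single-mutation variants displayed on the E. coli surface, counted by deep sequencing, each peptide's frequency after selection divided by its frequency in the unselected input library; frequency after pTyr selection over input frequency; kinase dosed for 20-30% of maximal phosphorylation in three min.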

Fes, sequence (P07332 whole entry, looked up): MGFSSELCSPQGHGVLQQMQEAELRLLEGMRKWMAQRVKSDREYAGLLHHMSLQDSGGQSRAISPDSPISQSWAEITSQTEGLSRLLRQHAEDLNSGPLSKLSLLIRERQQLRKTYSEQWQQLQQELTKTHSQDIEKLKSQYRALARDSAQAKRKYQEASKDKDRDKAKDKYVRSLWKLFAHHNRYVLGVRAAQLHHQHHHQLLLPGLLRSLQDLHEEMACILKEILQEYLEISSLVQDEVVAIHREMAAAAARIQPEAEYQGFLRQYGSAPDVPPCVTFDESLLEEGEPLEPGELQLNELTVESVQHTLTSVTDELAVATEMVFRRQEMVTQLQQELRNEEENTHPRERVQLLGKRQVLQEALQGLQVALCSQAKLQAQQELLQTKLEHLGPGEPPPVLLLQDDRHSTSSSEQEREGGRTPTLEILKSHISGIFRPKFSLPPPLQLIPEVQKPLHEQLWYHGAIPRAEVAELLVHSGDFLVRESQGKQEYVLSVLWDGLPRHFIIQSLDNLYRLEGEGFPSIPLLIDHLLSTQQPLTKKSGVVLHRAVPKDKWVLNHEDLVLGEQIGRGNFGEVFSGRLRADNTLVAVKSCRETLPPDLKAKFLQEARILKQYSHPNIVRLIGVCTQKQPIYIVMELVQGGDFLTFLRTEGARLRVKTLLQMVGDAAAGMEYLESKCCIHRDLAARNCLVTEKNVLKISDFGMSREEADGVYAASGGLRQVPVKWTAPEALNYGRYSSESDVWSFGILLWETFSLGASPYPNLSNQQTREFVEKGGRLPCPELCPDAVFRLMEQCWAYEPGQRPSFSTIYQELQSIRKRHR
EPHB2, sequence (P29323 whole entry, looked up): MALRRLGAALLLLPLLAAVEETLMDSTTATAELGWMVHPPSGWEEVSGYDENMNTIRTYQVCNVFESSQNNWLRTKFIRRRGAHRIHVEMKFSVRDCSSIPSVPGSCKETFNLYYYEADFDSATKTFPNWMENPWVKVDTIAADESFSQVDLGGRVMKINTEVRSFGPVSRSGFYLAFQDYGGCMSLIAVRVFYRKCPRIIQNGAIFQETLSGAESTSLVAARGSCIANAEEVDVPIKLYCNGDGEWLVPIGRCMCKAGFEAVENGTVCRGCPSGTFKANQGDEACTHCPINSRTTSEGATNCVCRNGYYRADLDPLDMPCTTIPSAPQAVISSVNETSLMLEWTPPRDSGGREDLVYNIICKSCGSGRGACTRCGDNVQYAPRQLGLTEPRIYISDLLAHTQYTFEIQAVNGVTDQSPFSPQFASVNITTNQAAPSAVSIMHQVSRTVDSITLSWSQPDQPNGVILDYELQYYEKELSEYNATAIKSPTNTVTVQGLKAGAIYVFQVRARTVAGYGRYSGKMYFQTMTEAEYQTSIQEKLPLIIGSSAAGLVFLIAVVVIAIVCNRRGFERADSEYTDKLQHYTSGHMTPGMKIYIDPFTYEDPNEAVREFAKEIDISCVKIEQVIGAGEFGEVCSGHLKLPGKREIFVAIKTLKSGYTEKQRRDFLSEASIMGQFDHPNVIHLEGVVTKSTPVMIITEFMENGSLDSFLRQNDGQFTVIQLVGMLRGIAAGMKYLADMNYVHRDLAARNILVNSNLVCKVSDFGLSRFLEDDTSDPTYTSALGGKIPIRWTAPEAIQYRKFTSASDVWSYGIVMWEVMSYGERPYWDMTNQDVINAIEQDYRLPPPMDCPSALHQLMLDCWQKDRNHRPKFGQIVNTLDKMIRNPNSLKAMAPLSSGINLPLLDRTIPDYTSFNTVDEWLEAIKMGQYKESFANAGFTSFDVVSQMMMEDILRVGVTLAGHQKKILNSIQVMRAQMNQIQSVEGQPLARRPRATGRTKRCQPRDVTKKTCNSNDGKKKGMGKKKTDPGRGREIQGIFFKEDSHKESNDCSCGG
FGFR1, sequence (P11362 whole entry, looked up): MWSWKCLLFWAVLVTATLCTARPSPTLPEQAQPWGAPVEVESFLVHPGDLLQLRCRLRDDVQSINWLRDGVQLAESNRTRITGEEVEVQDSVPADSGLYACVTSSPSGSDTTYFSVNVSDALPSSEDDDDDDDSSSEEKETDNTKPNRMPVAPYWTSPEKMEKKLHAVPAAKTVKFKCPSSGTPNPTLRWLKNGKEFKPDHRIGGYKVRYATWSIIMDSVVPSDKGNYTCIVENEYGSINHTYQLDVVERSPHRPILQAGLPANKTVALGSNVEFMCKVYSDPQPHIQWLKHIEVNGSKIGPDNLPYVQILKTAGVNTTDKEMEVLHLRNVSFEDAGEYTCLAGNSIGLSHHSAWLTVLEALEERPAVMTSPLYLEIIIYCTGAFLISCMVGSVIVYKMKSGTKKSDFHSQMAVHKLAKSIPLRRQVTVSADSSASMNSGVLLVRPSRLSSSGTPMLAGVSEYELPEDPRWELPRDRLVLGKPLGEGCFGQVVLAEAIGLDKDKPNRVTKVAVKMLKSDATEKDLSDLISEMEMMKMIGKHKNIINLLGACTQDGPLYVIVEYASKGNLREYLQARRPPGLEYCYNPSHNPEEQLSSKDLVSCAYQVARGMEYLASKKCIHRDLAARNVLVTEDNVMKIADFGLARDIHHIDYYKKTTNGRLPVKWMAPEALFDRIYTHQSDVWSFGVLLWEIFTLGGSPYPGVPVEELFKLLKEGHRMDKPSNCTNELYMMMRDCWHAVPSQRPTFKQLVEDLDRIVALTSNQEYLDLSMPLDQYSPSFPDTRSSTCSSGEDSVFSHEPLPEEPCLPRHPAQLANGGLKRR
FGFR3, sequence (P22607 whole entry, looked up): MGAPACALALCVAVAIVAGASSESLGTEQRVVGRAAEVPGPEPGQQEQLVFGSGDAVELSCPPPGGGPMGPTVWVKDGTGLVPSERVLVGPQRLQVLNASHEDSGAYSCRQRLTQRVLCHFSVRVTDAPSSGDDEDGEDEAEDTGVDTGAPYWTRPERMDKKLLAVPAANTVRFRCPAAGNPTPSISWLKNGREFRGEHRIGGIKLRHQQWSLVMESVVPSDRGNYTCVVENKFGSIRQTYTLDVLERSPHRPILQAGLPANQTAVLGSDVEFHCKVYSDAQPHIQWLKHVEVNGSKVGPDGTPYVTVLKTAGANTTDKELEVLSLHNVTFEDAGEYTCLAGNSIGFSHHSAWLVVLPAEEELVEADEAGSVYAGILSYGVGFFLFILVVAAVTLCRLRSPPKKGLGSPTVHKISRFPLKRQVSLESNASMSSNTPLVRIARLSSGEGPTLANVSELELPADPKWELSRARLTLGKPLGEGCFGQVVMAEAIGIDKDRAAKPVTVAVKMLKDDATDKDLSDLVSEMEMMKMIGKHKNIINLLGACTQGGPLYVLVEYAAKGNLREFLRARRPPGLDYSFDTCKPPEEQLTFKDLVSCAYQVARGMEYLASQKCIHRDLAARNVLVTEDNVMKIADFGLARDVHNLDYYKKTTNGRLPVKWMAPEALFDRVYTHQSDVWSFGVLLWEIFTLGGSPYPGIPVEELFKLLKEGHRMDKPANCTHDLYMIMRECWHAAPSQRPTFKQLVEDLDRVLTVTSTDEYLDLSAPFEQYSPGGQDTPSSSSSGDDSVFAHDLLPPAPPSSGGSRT

Sequence | SH2 binding enrichment (Grb2 SH2) | SH2 binding enrichment (SHP2-C SH2) | SH2 binding enrichment (c-Src SH2) | phosphorylation enrichment (AncSZ) | phosphorylation enrichment (EPHB1) | phosphorylation enrichment (EPHB2) | phosphorylation enrichment (FGFR1) | phosphorylation enrichment (FGFR3) | phosphorylation enrichment (Fer (mouse)) | phosphorylation enrichment (Fes) | phosphorylation enrichment (Fyn) | phosphorylation enrichment (Hck) | phosphorylation enrichment (Jak2) | phosphorylation enrichment (MERTK) | phosphorylation enrichment (c-Abl (mouse)) | phosphorylation enrichment (c-Src)
CRAVKYLQMVD [AVPR2_Y117_G122D] | 0.798 | 0.755 | 0.532 | 0.71 | 0.508 | 0.456 | 0.427 | 0.585 | 0.419 | 0.922 | 0.503 | 0.456 | 0.675 | 0.354 | 0.535 | 0.318
DAAEDYAEGVR [DHODH_Y194] | 0.937 | 0.63 | 0.701 | 1.21 | 0.549 | 0.671 | 0.561 | 0.746 | 0.629 | 1.31 | 0.542 | 0.586 | 0.951 | 0.45 | 0.695 | 0.45
DDEENYENVPR [FCRL3_Y722] | 1.04 | 0.9 | 0.699 | 1.3 | 0.619 | 0.572 | 0.567 | 0.773 | 0.57 | 1.19 | 0.555 | 0.589 | 1.11 | 0.45 | 0.786 | 0.428
DDKQPYEKKAE [HMGB1_Y144_A149E] | 1.09 | 0.756 | 0.736 | 1.12 | 0.516 | 0.645 | 0.529 | 0.631 | 0.464 | 1.04 | 0.53 | 0.579 | 0.921 | 0.515 | 0.828 | 0.43
DFTEAYNSKIK [CLK1_Y305_P307S_YF] | 0.945 | 0.613 | 0.45 | 0.899 | 0.721 | 0.622 | 0.592 | 0.65 | 0.465 | 1.02 | 0.512 | 0.526 | 0.908 | 0.464 | 0.795 | 0.56
DGKFSYLKVGH [GRM3_Y480_G475D_YF] | 0.838 | 0.671 | 0.421 | 0.678 | 0.444 | 0.388 | 0.467 | 0.478 | 0.338 | 1.16 | 0.33 | 0.337 | 0.599 | 0.505 | 0.575 | 0.411
DGLASYLDKVR [KRT12_Y139_R135G] | 0.872 | 0.737 | 0.437 | 0.664 | 0.41 | 0.414 | 0.363 | 0.51 | 0.365 | 0.757 | 0.422 | 0.375 | 0.631 | 0.415 | 0.685 | 0.414
DGQVNYEEFVQ [CALM1_Y139] | 0.784 | 0.493 | 0.399 | 1.33 | 1.62 | 1.28 | 0.608 | 0.841 | 0.659 | 1.42 | 0.505 | 0.626 | 1.2 | 0.487 | 0.957 | 0.576
DISEPYEVFRI [IRF8_Y107_K108E_YF] | 1.03 | 0.916 | 0.663 | 2.21 | 0.665 | 0.559 | 0.661 | 0.725 | 12.3 | 1.15 | 1.91 | 1.81 | 1.09 | 0.572 | 1.09 | 4.48
DISEPYEVYRI [IRF8_Y107_K108E] | 0.76 | 0.401 | 0.638 | 2.01 | 0.425 | 0.634 | 0.736 | 0.624 | 9.63 | 1.05 | 1.55 | 1.28 | 0.912 | 0.522 | 0.862 | 3.97
DLDATYRPMFS [JUP_Y701_M697L_YF] | 0.72 | 0.713 | 0.5 | 0.722 | 0.636 | 0.557 | 0.491 | 0.557 | 0.489 | 0.85 | 0.522 | 0.686 | 0.673 | 0.33 | 0.662 | 0.542
DPADRYLTEQF [CDKL5_Y286_C291Y_YF] | 0.889 | 0.618 | 0.571 | 1.11 | 0.514 | 0.747 | 0.591 | 0.645 | 0.513 | 1.35 | 0.527 | 0.558 | 1.11 | 0.6 | 0.733 | 0.594
DPASAYADEVK [ETNPPL_Y189_S185P] | 0.941 | 0.462 | 0.671 | 1.06 | 0.628 | 0.469 | 0.473 | 0.724 | 0.495 | 1.2 | 0.492 | 0.557 | 1.06 | 0.435 | 0.794 | 0.416
DRLASDLDKVR [KRT10_Y160_Y160D] | 0.842 | 0.681 | 0.505 | 0.603 | 0.372 | 0.471 | 0.439 | 0.469 | 0.416 | 0.661 | 0.448 | 0.425 | 0.537 | 0.362 | 0.443 | 0.363
DRLASYLDKVP [KRT14_Y129_R134P] | 1.04 | 0.797 | 0.521 | 0.802 | 0.537 | 0.472 | 0.456 | 0.689 | 0.499 | 0.912 | 0.481 | 0.5 | 0.883 | 0.495 | 0.621 | 0.493
DSGKLYALDGL [INO80_Y1104_V1108G] | 0.92 | 0.525 | 0.567 | 0.829 | 0.723 | 0.833 | 0.581 | 0.715 | 0.719 | 1.02 | 0.763 | 0.828 | 0.912 | 2.2 | 0.699 | 1.17

More lines, main results first:

SH2 binding enrichment (Grb2 SH2) | SH2 binding enrichment (SHP2-C SH2) | SH2 binding enrichment (c-Src SH2) | Sequence | phosphorylation enrichment (AncSZ) | phosphorylation enrichment (EPHB1) | phosphorylation enrichment (EPHB2) | phosphorylation enrichment (FGFR1) | phosphorylation enrichment (FGFR3) | phosphorylation enrichment (Fer (mouse)) | phosphorylation enrichment (Fes) | phosphorylation enrichment (Fyn) | phosphorylation enrichment (Hck) | phosphorylation enrichment (Jak2) | phosphorylation enrichment (MERTK) | phosphorylation enrichment (c-Abl (mouse)) | phosphorylation enrichment (c-Src)
1.71 | 1.73 | 1.23 | CTIIHYNFMCN [TP53_Y234_T231I_YF] | 1.12 | 0.718 | 0.553 | 0.524 | 0.993 | 0.686 | 1.54 | 0.482 | 0.56 | 1.5 | 0.434 | 0.825 | 0.445
1.21 | 0.837 | 0.922 | CTTIHDNYMCN [TP53_Y234_Y234D] | 0.817 | 0.521 | 0.556 | 0.541 | 0.539 | 0.54 | 1 | 0.435 | 0.546 | 0.799 | 0.507 | 0.551 | 0.44
0.995 | 0.857 | 1.86 | CTTIHYNYMHN [TP53_Y234_C238H] | 0.692 | 0.528 | 0.536 | 0.479 | 0.521 | 0.488 | 0.767 | 0.447 | 0.407 | 0.531 | 0.433 | 0.446 | 0.349
0.962 | 1.12 | 3.79 | CTTNHYNFMCN [TP53_Y234_I232N_YF] | 0.811 | 0.436 | 0.544 | 0.626 | 0.556 | 0.486 | 0.67 | 0.463 | 0.424 | 0.511 | 0.437 | 0.489 | 0.497
1.14 | 1.04 | 4.04 | CTTSHYNFMCN [TP53_Y234_I232S_YF] | 0.911 | 0.516 | 0.533 | 0.509 | 0.637 | 0.552 | 0.967 | 0.484 | 0.446 | 0.884 | 0.455 | 0.613 | 0.48
1.31 | 1.26 | 1.08 | CYCSWYRGWAP [TIMP3_Y195_G190C] | 1.03 | 0.628 | 0.632 | 1.19 | 1.02 | 3.41 | 1.08 | 0.721 | 1.01 | 1.04 | 0.733 | 0.882 | 3.7
0.85 | 0.558 | 0.509 | DAANNYARGHY [TUBA3E_Y103_S101N] | 0.691 | 0.412 | 0.37 | 0.469 | 0.45 | 0.355 | 0.575 | 0.421 | 0.436 | 0.546 | 0.528 | 0.559 | 0.442
0.732 | 0.725 | 0.617 | DALDNYVVRGV [PCCA_Y473_I475V] | 0.751 | 0.499 | 0.536 | 0.458 | 0.466 | 0.387 | 0.823 | 0.507 | 0.394 | 0.793 | 0.37 | 0.674 | 0.436
0.906 | 0.726 | 0.881 | DENWFYTQAAS [RPS19_Y54_R56Q] | 1.15 | 0.49 | 0.877 | 0.455 | 0.682 | 0.483 | 1.06 | 0.388 | 0.392 | 0.876 | 0.395 | 0.62 | 0.472
1.02 | 0.979 | 0.71 | DFFDLYGGEKL [PTPN11_Y66_F71L_YF] | 1.54 | 0.743 | 0.901 | 0.582 | 0.746 | 0.816 | 1.92 | 2.1 | 3.61 | 1.88 | 0.9 | 1.02 | 3.79
1.1 | 3.8 | 2.01 | DFLSSYSAVNQ [OAT_Y85] | 1.04 | 0.658 | 0.493 | 0.433 | 0.698 | 1.17 | 0.947 | 0.427 | 0.531 | 0.997 | 0.558 | 0.703 | 0.61
0.628 | 0.713 | 0.475 | DGTESYLTVSS [PLK1_Y462] | 0.89 | 0.447 | 0.467 | 0.454 | 0.59 | 0.487 | 0.954 | 0.453 | 0.443 | 0.845 | 0.387 | 0.687 | 0.465
0.849 | 1.16 | 0.679 | DLVRPYVHKIL [SF3B1_Y570] | 0.636 | 0.519 | 0.586 | 0.466 | 0.566 | 0.534 | 0.743 | 0.703 | 0.449 | 0.55 | 0.504 | 0.539 | 0.43
0.989 | 0.642 | 0.597 | DLVSEYQQYQD [TUBB3_Y422] | 1.57 | 0.721 | 0.704 | 0.523 | 0.858 | 0.709 | 1.37 | 0.706 | 0.656 | 1.42 | 0.488 | 1.04 | 0.677
0.917 | 0.71 | 0.655 | DPHQQYFIAMD [TBX15_Y159_YF] | 0.93 | 0.504 | 0.577 | 1.02 | 1.19 | 0.396 | 1.1 | 0.551 | 0.544 | 1.06 | 0.511 | 0.792 | 0.637
1.04 | 0.657 | 0.546 | DPLLTYQFPPK [LMNA_Y481_R482Q] | 1.25 | 0.597 | 1.27 | 1.69 | 1.17 | 0.498 | 0.773 | 1.24 | 0.986 | 0.566 | 0.796 | 0.549 | 1.54
0.688 | 0.405 | 0.442 | DSDTDYGSGYP [RNASEH2A_Y206_L202S] | 1.36 | 0.708 | 0.573 | 0.647 | 0.899 | 0.646 | 1.55 | 0.677 | 0.699 | 1.43 | 0.575 | 1.01 | 0.689

— the supplement of paper PMC10065799, “High-throughput profiling of sequence recognition by tyrosine kinases and SH2 domains using bacterial peptide display” (eLife, 2023)
